Patent publication US20250333501A1

Experiments:
[1] = target: CLDN6 endogenously expressed by human cancer cell lines (ARK2, OVCA429) (human) (UniProt P56747); test: FACS, 1.5 µg Ab, ARK2 cells
[2] = target: CLDN6 endogenously expressed by human cancer cell lines (ARK2, OVCA429) (human) (UniProt P56747); test: FACS, 0.3 µg Ab, ARK2 cells
[3] = target: human CLDN6 fused to GFP, expressed on engineered HEK293T cells (HEK293T-CLDN6-mGFP) (human) (UniProt P56747); test: FACS, 1.5 µg Ab, 293T clone with human CLDN6
Sequence of human CLDN6 fused to GFP, expressed on engineered HEK293T cells (HEK293T-CLDN6-mGFP) (human) (P56747 whole entry, change not shown, the tested form may be a part): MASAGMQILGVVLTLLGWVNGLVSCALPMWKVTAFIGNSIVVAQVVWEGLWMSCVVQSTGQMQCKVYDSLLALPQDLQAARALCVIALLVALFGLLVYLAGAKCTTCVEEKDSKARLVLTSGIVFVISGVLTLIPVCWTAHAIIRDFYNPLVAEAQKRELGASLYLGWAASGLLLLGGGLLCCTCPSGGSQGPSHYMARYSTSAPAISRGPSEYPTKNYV

[4] = target: human CLDN6 fused to GFP, expressed on engineered HEK293T cells (HEK293T-CLDN6-mGFP) (human) (UniProt P56747); test: FACS, 0.3 µg Ab, 293T clone with human CLDN6
[5] = target: CLDN6 endogenously expressed by human cancer cell lines (ARK2, OVCA429) (human) (UniProt P56747); test: FACS, 1.5 µg Ab, OVCA429 cells
[6] = target: mouse CLDN6 fused to GFP, expressed on engineered HEK293T cells (mouse) (UniProt Q9Z262); test: FACS, 293T clone with mouse CLDN6, dose not given
Sequence of mouse CLDN6 fused to GFP, expressed on engineered HEK293T cells (mouse) (Q9Z262 whole entry, change not shown, the tested form may be a part): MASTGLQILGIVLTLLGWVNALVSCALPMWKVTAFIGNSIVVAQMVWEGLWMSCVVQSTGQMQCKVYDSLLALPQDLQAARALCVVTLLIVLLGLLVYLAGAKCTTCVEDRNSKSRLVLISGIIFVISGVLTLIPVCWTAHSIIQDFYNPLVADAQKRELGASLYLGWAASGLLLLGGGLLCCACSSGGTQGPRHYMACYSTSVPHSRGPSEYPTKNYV

Sequence of CLDN6 endogenously expressed by human cancer cell lines (ARK2, OVCA429) (human) (P56747 whole entry, the tested form may be a part): as the sequence (P56747 whole entry, change not shown, the tested form may be a part) above

What does the source list for 2nd Ab only (antibody)?
FACS fluorescence [1]: 1350; FACS fluorescence [2]: 1350; FACS fluorescence [3]: 768; FACS fluorescence [4]: 768; FACS fluorescence [5]: 886; FACS fluorescence [6]: 1060
